Laboratory results as given in US20220144940A1.

Key:
human ILT7 (human) [1] = molecular target: human ILT7 (human) (UniProt P59901); assay: FACS dot plot of human PBMCs, CD304-PE against AF647-labeled antibody (lower left panel); upper left quadrant (CD304+ AF647-) 0.532
human ILT7 (human) [2] = molecular target: human ILT7 (human) (UniProt P59901); assay: flow cytometry of human PBMCs with APC-labeled antibody at 2.5 µg/ml, histogram gated on BDCA-4+ pDCs (lower row)
human ILT7 (human) [3] = molecular target: human ILT7 (human) (UniProt P59901); assay: flow cytometry dot plot of human PBMCs, BDCA-4 against APC-labeled antibody (upper row); upper left quadrant (BDCA-4+ APC-) 0.36

Chain of human ILT7 (human) (P59901 24-499): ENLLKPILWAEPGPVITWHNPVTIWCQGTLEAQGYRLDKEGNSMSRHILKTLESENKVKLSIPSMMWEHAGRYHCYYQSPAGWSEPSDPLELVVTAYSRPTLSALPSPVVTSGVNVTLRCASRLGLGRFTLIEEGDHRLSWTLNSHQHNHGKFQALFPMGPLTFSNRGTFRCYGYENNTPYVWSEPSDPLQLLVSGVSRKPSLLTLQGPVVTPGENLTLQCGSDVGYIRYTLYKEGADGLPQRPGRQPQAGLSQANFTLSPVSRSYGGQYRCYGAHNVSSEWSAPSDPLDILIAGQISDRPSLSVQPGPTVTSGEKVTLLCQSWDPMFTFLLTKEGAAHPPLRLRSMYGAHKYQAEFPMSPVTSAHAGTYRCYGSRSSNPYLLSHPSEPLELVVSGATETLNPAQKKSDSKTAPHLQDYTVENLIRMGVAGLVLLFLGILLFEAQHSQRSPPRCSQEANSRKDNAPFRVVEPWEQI

Question: For “afucosylated isotype control R347 (antibody)”, which percent of PBMCs in the CD304+ AF647+ quadrant (upper right) (human ILT7 (human) [1]) is on record?
Answer: Its percent of PBMCs in the CD304+ AF647+ quadrant (upper right) is 0.0153%.

Question: With isotype control R347 (antibody) as the substance, how does the percent of pDCs (BDCA-4+ cells) in the APC-positive gate (human ILT7 (human) [2]) read?
Answer: Its percent of pDCs (BDCA-4+ cells) in the APC-positive gate is 0.59%.

Question: What about the percent of PBMCs in the BDCA-4+ APC+ quadrant (upper right) (human ILT7 (human) [3]) of the same substance?
Answer: Its percent of PBMCs in the BDCA-4+ APC+ quadrant (upper right) is 0.000963%.
